Measured values taken from the supplement of paper PMC7125110.
± gives the standard error. For some of these results: This sample holds only a part of the variants without activity.

B1: glmS ribozyme (parent)
chain: AUAAAAGCGCCAGAACUACAGAAAUGUAGUUGACGAGGAGGAGGUUUAUCGAAUUUUCGGCGGAUGCCUCCAAA

Experiments:
Details in all cases: with glucosamine-6-phosphate
[1] = variants of: B1; test: kcat; higher = faster cleavage; RNA array
Outline: (§1)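 kcat and KM were obtained from weighted Michaelis–Menten fits across concentrations of kobs values. Those came from one- or two-exponential decay fits to per-tile medians normalised to baseline and to non-cleaving reference variants. The variants were barcoded ribozymes transcribed in situ by E. coli RNA polymerase on sequenced MiSeq chips and tracked through a hybridised Cy3 probe at 37 °C, with 40 μM to 10 mM glucosamine-6-phosphate in HEPES/KCl/Mg(OAc)2 buffer flowed in.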

[2] = variants of: B1; test: KM; higher = weaker cofactor use; RNA array
Outline: as §1

[3] = variants of: B1; test: self-cleavage kobs at 40 uM GlcN6P; higher = faster cleavage; RNA array
Outline: as §1

[4] = variants of: B1; test: self-cleavage kobs at 2500 uM GlcN6P; higher = faster cleavage; RNA array
Outline: as §1

[5] = variants of: B1; test: self-cleavage kobs at 10000 uM GlcN6P; higher = faster cleavage; RNA array
Outline: as §1

[6] = variants of: B1; test: self-cleavage kobs at 160 uM GlcN6P; higher = faster cleavage; RNA array
Outline: as §1

[7] = variants of: B1; test: self-cleavage kobs at 640 uM GlcN6P; higher = faster cleavage; RNA array
Outline: as §1

Variant	kcat [1] [s⁻¹]	KM [2] [µM]	self-cleavage kobs at 40 uM GlcN6P [3] [s⁻¹]	self-cleavage kobs at 2500 uM GlcN6P [4] [s⁻¹]	self-cleavage kobs at 10000 uM GlcN6P [5] [s⁻¹]	self-cleavage kobs at 160 uM GlcN6P [6] [s⁻¹]	self-cleavage kobs at 640 uM GlcN6P [7] [s⁻¹]
A64C C70U	5.98e-05 ± 9.8e-07	1590 ± 110	< 1e-05	3.63e-05 ± 9.6e-06	5.16e-05 ± 6.8e-06		
A14U U49C	< 1e-05		< 1e-05			< 1e-05	
A52U A64G	0.000348 ± 8.9e-05			0.00023 ± 3.8e-05	0.000262 ± 3.6e-05		
A12U G59A	0.000207 ± 1.4e-05	3140 ± 430		8.97e-05 ± 8.8e-06	0.000159 ± 1.8e-05		3.84e-05 ± 8.7e-06
G13U C70G	4.04e-05 ± 3e-06			3.94e-05 ± 6.3e-06	3.71e-05 ± 6.7e-06		4.63e-05 ± 9.7e-06
A15G U65G	0.0045 ± 0.0017	4200 ± 2000	4.05e-05 ± 1e-05	0.00285 ± 0.0006	0.00279 ± 0.00062	0.000133 ± 3.7e-05	0.000664 ± 0.00013
C50G G66A	4.08e-05 ± 1e-05					5.66e-05 ± 2.2e-05	
C16U G51A C61G	1.5e-05 ± 3.9e-06						
A52U U56G	0.000175 ± 4.1e-05	5090 ± 2000		5.36e-05 ± 9.7e-06	0.000122 ± 2.5e-05		2.83e-05 ± 1.1e-05
G51A A53C	< 1e-05						< 1e-05
G38C C68G	1.31e-05 ± 3.9e-06						
A14U A48G	1.29e-05 ± 5.7e-06					< 1e-05	
U54C C71G	0.00083 ± 0.00027			0.000351 ± 0.00011	0.00091 ± 0.00016	0.000132 ± 5.7e-05	0.000424 ± 0.00013
G32U C71U	0.00136 ± 0.0003	5540 ± 1700		0.00037 ± 3.3e-05	0.000927 ± 7.7e-05	6.14e-05 ± 1.3e-05	0.000146 ± 1.1e-05
C11G G51A	< 1e-05	30.6 ± 15	< 1e-05		< 1e-05		
G37A U54G	0.00267 ± 0.00094		6.88e-05 ± 1.3e-05	0.000936 ± 0.00022	0.00234 ± 0.00032	0.000132 ± 2.9e-05	0.000413 ± 9.4e-05
U30G A48G	< 1e-05		< 1e-05			< 1e-05	
A14U C50U C67G	3.51e-05 ± 1.5e-05						

Variant	kcat [1] [s⁻¹]	KM [2] [µM]	self-cleavage kobs at 40 uM GlcN6P [3] [s⁻¹]	self-cleavage kobs at 2500 uM GlcN6P [4] [s⁻¹]	self-cleavage kobs at 10000 uM GlcN6P [5] [s⁻¹]	self-cleavage kobs at 160 uM GlcN6P [6] [s⁻¹]	self-cleavage kobs at 640 uM GlcN6P [7] [s⁻¹]
G37C C71U	3.39e-05 ± 1.3e-06	662 ± 140		2.55e-05 ± 9.5e-06	3.23e-05 ± 8.2e-06		
A39G C58G	0.000195 ± 2.9e-05	3340 ± 1100		7.24e-05 ± 1.7e-05	0.000151 ± 2.3e-05		3.89e-05 ± 1.2e-05
G59U C71G	1.13e-05 ± 1.7e-07	817 ± 71	< 1e-05			< 1e-05	
G40U A48G	8.97e-05 ± 4.3e-05		< 1e-05		3.18e-05 ± 8.1e-06		
A6U G32U C50G	6.32e-05 ± 1.6e-05			6.04e-05 ± 1.5e-05		7.94e-05 ± 1.8e-05	
A15G U69G	7.83e-05 ± 1.2e-05		3.29e-05 ± 1.2e-05	0.00012 ± 1.7e-05	7.05e-05 ± 9.2e-06	5.34e-05 ± 2.7e-05	6.2e-05 ± 1.2e-05
U46A C58A	2.63e-05 ± 4.4e-06						
A12C U30C C71U	0.00195 ± 0.00038	3540 ± 1200	3.06e-05 ± 1.5e-05	0.000922 ± 0.00025	0.00141 ± 0.00029		0.000258 ± 8.1e-05
U56G A64C	7.21e-05 ± 4.9e-06	1500 ± 420		3.92e-05 ± 1.5e-05	6.35e-05 ± 8.6e-06	< 1e-05	2.44e-05 ± 1.1e-05
G29C G40C	9.96e-05 ± 4.4e-06	1020 ± 150		7.4e-05 ± 1.6e-05	8.84e-05 ± 1.8e-05		3.65e-05 ± 1.5e-05
A14G C68A	9.34e-05 ± 1.3e-05	254 ± 120		0.000105 ± 3.4e-05	7.77e-05 ± 2.1e-05	2.91e-05 ± 1.3e-05	7.66e-05 ± 1.6e-05
A12G A33U	1.86e-05 ± 6.4e-06		< 1e-05		< 1e-05		
A15U U47A	0.00433 ± 0.0014	1960 ± 890	0.00015 ± 3.6e-05	0.00263 ± 0.00057	0.00356 ± 0.0009	0.000273 ± 6.7e-05	0.000846 ± 0.00036
U31A U54A	0.011 ± 0.003	1640 ± 590	0.000241 ± 4.8e-05	0.00508 ± 0.0013	0.0126 ± 0.0031	0.00112 ± 0.00023	0.00342 ± 0.00062
C58A G60C C67G	1.21e-05 ± 3.8e-06						
A14C G29A A53U G59A C68U	< 1e-05						
A15U U65G	0.00187 ± 0.00077		3.19e-05 ± 1.1e-05	0.00056 ± 0.00017	0.00139 ± 0.00025	6.21e-05 ± 1e-05	0.00036 ± 4.5e-05
A12U G13A C50G C67U	0.000171 ± 2.5e-05		0.000107 ± 2.3e-05	0.000208 ± 3.6e-05	0.000124 ± 3.4e-05	0.000201 ± 5.7e-05	0.000169 ± 4.2e-05
